This is an account of results in patent US20210198377A1 (XDCEXPLORER SHANGHAI, published 2021).

The target of experiment [1] is T1, biotinylated recombinant TPBG protein (Homo sapiens (Human), UniProt Q13641 32-355, Biotinylated; the number and positions of the biotin labels are not stated and the letters do not carry them.).
T1 sequence: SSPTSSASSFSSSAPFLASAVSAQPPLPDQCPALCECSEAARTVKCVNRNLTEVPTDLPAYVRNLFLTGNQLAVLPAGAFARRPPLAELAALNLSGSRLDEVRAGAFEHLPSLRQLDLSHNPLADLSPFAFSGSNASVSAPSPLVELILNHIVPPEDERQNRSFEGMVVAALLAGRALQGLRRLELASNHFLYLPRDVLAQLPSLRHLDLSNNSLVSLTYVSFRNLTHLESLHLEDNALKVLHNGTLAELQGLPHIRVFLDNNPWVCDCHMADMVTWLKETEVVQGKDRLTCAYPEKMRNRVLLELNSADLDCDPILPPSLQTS
Put plainly: competitive ELISA; row antibody 5 ug/mL; competitor: coated 52C9E9F6. As for the experimental part:
(§1) The purified antibodies to be tested were diluted to 1 μg/mL using PBS, and coated with high-adsorption of 96-well microplates at […]. After overnight coating at 4[…], 250 μL of blocking buffer (PBS containing 0.01% (v/v) Tween20 and 1% (w/w) BSA) was added to block coating at room temperature for 1 h, and 0.05 μg/mL of biotinylated recombinant TPBG protein was added to each well. Meanwhile, 5 μg/mL final concentration of competitive antibodies, i.e. the purified antibodies obtained from Embodiment 2 with the clone number of 12B12C7C3, 5G4H10G5, 37H9C5G2, 39A11G5F2, 52C9E9F6, 28D4E6A9, 36A10D8B12, 99E12C7H1, 103E2E9C2 and 106D5G3D10 were added and incubated at 25-37° C. for 1-2 h. The plates were washed three times with plate-washing buffer (PBS containing 0.01% (v/v) Tween20) and HRP (horseradish peroxidase)-labeled streptavidin (purchased from Sigma) was added. After incubating at 37° C. for 0.5 h, the plates were washed three times with plate-washing buffer (PBS containing 0.01% (v/v) Tween20), and 100 μL of TMB substrate was added to each well and the plates were further incubated at room temperature for 30 min prior to adding 100 μL of stop buffer (1.0N HCl) to each well. A₄₅₀ₙₘ values were read using an ELISA microplate reader (SpectraMax 384plus purchased from Molecular Device) and results were shown in FIG. 6. The higher the values of the competition rate, the closer the antigen surface of the two antibodies are.
Background: In an ELISA, binding on a coated surface is turned into a signal by an enzyme label.

For experiment [2], the target named is T1, biotinylated recombinant TPBG protein. Put plainly: competitive ELISA; row antibody 5 ug/mL; competitor: coated 36A10D8B12. How it is done:
as §1

Experiment [3] has the same target. Put plainly: competitive ELISA; row antibody 5 ug/mL; competitor: coated 28D4E6A9. How it is done: as §1
Experiment [4] shares this target. Put plainly: competitive ELISA; row antibody 5 ug/mL; competitor: coated 99E12C7H1. As for the experimental part:
as §1

Experiment [5] has the same target. As to the kind of experiment: competitive ELISA; row antibody 5 ug/mL; competitor: coated 12B12C7C3. How it is done:
as §1

The target of a further experiment is T2, human TPBG-hFc (human, UniProt Q13641 32-355).
T2 construct: also called immunogen A; hFc tagged TPBG protein; not shown: The human IgG Fc fragment of the pCpC vector (Invitrogen V044-50) and any linker to it
T2 sequence: T1 sequence
Put plainly: ELISA, coated human TPBG-hFc 1.0 ug/mL; antibody 0.0002 nM. As for the experimental part: The purified immunogen A (as for its method of preparation please refer to step 1 in Example 1) diluting with PBS to a final concentration of 1.0 μg/mL was aliquoted into a 96-well ELISA plate at 100 μL per well, and sealed with a parafilm and incubated at 4° C. overnight. The plate was washed twice with plate washing buffer (PBS containing 0.01% (v/v) Tween 20), and blocked with blocking buffer (PBS containing 0.01% (v/v) Tween 20 and 1% (w/w) BSA) at room temperature for 2 h. The blocking buffer was discarded, and 100 μL per well of the purified antibody obtained from Embodiment 2 was added. After incubating at 37° C. for 2 h, the plate was washed for three times with plate washing buffer (PBS containing 0.01% (v/v) Tween 20). HRP (horseradish peroxidase)-labeled secondary antibody (purchased from Sigma) was added and incubated at 37° C. for 2 h, and the plate was washed for three times using plate washing buffer (PBS containing 0.01% (v/v) Tween 20). 100 μL of TMB substrate was aliquoted into each well, incubated at room temperature for 30 min, and 100 μL of stop buffer (1.0N HCl) per well was subsequently added. A₄₅₀ₙₘ values were read using the ELISA plate reader (SpectraMax 384plus purchased from Molecular Device), and the results were shown in FIG. 6 and table 6. […] In Table 6 the IgG control herein is a mice IgG control, the data in the Table are OD₄₅₀ₘₙ values, and Blank means the OD₄₅₀ₘₙ value when there is only PBS buffer in the plate.

The target of experiment [6] is T1, biotinylated recombinant TPBG protein. Put plainly: competitive ELISA; row antibody 5 ug/mL; competitor: coated 106D5G3D10. How it is done: as §1

B1: 36A10D8B12 (antibody, V domains shown)
VH: DVQLQESGPGMVKPSQSLSLTCTVTGYSITSGYDWHWIRHFPGNKLEWMGYISYSGNTNYNPSLKSRISITHNTSKNHFFLRLNSVTTEDTATYYCARGYGNWDAMDYWGQGTSVTVSS
VL: DIVMTQSQKFMSTSVGDRVSVTCKASQIVDTNVAWYQQKPGQSPKALISSASYRYSGVPDRFTGSGSGTDFTLTISNVQSEDLAEYFCQQYNSYPLTFGAGTKLELT
notes: Mouse hybridoma antibody purified from culture supernatant; also called TPBG antibody; lead antibody
In the case of B1, the competition rate in experiment [1] is 23%; in experiment [2], 85%; in experiment [3] it was 86%; in experiment [4], 25%; in experiment [5], 21%; in experiment [6], 14%. For the same molecule, in the experiment with human TPBG-hFc, the OD450nm came to 0.16 OD450nm.

B2: 106D5G3D10 (antibody, V domains shown)
VH: EVQLVESGGGLVKPGGSLKLSCAASGFTFSDYGMHWVRQAPEKGLEWVGYISSGTYVVYYADTVKGRFTISRDNAKNTLFLQMTSLRSEDTAIYYCSTYGSNPFDYWGQGTTLTVSS
VL: QLVLTQSPAIMSASPGEKVTITCSATSSVSSMHWFQQKPVTSPKLWIYSTSNLASGVPTRFSGSGSGTSYSLTISRMEAEDAATYYCQQRSGYPPIFTFGSGTKLEIK
notes: as for B1
As to B2, the competition rate in experiment [1] was found to be 0%; in experiment [2] it was 1%; in experiment [3] it was 1%; in experiment [4] it was 11%; in experiment [5] it was 95%; in experiment [6], 94%. For the same molecule, the OD450nm in the experiment with human TPBG-hFc stood at 0.11 OD450nm.

B3: 12B12C7C3 (antibody, V domains shown)
VH: DVQLVESGGGLVQPGGSRKLSCAASGFTFSNFGMHWVRQAPEKGLEWVAYISSGSTSFYYADTVKGRFTISRDNPKNTLFLQMTSLRSEDTAMYYCSRTNSLLRGFFDAWGAGTTVTVSS
VL: DIVLTQSPASLAVSLGQRATISCRASQSVSSSSYTYLHWYQQKPGQPPKLLIKSASNLESGVPARFSGTGSGTDFTLNIHPVEEEDTATYYCQHSWEIPLTFGAGTKLELK
notes: as for B1
B3: the competition rate is 4% in experiment [1]; 3% in experiment [2]; 74% in experiment [3]; 25% in experiment [4]; 97% in experiment [5]; 96% in experiment [6]. Also, the OD450nm in the experiment with human TPBG-hFc came to 0.1 OD450nm.

B4: 103E2E9C2 (antibody, V domains shown)
VH: EVQLQQSGPVLVKPGASVKMSCEASGYSFIDYYMSWVKQSRGRSLEWIGVFNPYSGEIIYNQKFKGKATLTVDKSSSTAYMELSSLTSEDSGVYSCARLRISYYAIDYWGQGTSVAVSS
VL: ENVLTQSPAIMSASPGEKVTMTCRATSSVSSGHFHWYQQKSGASPKVWIYSTSNLASGVPARFSGSGSGTSFSLTISSVEAEDVATYFCQQYSGYPLTFGGGTKLEIK
notes: as for B1
Take B4: the competition rate came out at 0% in experiment [1]; 31% in experiment [2]; 95% in experiment [3]; 3% in experiment [4]; 0% in experiment [5]; 0% in experiment [6]. Moreover, the OD450nm with human TPBG-hFc turned out to be 0.1 OD450nm.

B5: 99E12C7H1 (antibody, V domains shown)
VH: QIQLVQSGPELKKPGETVKISCKPSGYTFTAYGLSWVKQAPGQGFQWMGWINTYSGVPTYTDDFKGRFAFSLETSAGTASLQITNLKNEDTATYFCARSSIPPFEYWGPGTTLTVSS
VL: SFVMTQSPKFLLVSVGDRVTITCKASQSVSNDVAWYQQKPGQPPRVLIYFASNRYTGVPDRFTGSGYGTDFTFTISTVQAEDLALYFCQQDYSSPWTFGGGTKLEIK
notes: as for B1
Consider B5, for which the competition rate came out at 0% in experiment [1]; 8% in experiment [2]; 38% in experiment [3]; 94% in experiment [4]; 11% in experiment [5]; 12% in experiment [6]. The molecule also showed an OD450nm with human TPBG-hFc of 0.11 OD450nm.
